According to paper PMC5770437, “The crystal structure of D-xylonate dehydratase reveals functional features of enzymes from the Ilv/ED dehydratase family” (Scientific Reports, 2018):

What was measured:
[1] = target: T1, D-xylonate dehydratase from Caulobacter crescentus (CcXyDHT) (Caulobacter vibrioides, UniProt Q9A9Z2); test: X-ray crystal structure, […] Å; assay type: binding; conditions: holo form with Mg2+; Fe1 bound by Cys60 and Cys128, Fe2 by Cys200; active site
T1 construct: gene xylD; N-terminal Strep-tag II kept; expressed in E. coli; homotetramer; residues 1-591 (Asn3-His591 modelled); Lys130 carbamylated

[2] = target: D-xylonate dehydratase from Caulobacter crescentus (Caulobacter crescentus); test: crystal structure; holo-CcXyDHT at 2.7 Å, molecular replacement with 5J84, space group C2, a tetramer in the asymmetric unit; packing analysed with the PISA server
[3] = target: the molecule itself; test: crystal structure; re-refinement with PHENIX of the deposited apo So6PGDHT model (PDB 2GP4, 2.5 Å)

T1 sequence (Q9A9Z2 6-595): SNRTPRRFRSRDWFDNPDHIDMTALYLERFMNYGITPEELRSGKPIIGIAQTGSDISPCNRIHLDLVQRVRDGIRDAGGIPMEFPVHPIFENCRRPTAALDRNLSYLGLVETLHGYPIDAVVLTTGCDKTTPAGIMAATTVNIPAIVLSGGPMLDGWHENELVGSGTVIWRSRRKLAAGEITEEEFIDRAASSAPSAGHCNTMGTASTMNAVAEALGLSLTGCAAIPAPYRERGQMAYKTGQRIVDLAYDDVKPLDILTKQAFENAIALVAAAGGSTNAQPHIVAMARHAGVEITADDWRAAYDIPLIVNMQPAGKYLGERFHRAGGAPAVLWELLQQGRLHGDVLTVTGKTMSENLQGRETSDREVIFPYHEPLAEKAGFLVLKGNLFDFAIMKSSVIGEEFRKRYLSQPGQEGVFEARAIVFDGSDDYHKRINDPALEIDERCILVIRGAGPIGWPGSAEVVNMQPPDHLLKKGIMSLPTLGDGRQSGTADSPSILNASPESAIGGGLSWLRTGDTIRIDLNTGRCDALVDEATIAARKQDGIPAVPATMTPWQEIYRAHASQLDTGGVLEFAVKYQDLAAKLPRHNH

Molecule: [S]1[Fe][S][Fe]1 [[2Fe-2S] cluster]
- X-ray crystal structure, 2.7 Å [1]: The crystal structure of CcXyDHT suggests that the enzyme has a [2Fe-2S] cluster

Molecule: D-xylonate dehydratase from Caulobacter crescentus (enzyme)
- stoichiometry N [2]: 4

B1: 6-phosphogluconate dehydratase from Shewanella oneidensis (enzyme)
chain: MHSVVQSVTDRIIARSKASREAYLAALNDARNHGVHRSSLSCGNLAHGFAACNPDDKNALRQLTKANIGIITAFNDMLSAHQPYETYPDLLKKACQEVGSVAQVAGGVPAMCDGVTQGQPGMELSLLSREVIAMATAVGLSHNMFDGALLLGICDKIVPGLLIGALSFGHLPMLFVPAGPMKSGIPNKEKARIRQQFAQGKVDRAQLLEAEAQSYHSAGTCTFYGTANSNQLMLEVMGLQLPGSSFVNPDDPLREALNKMAAKQVCRLTELGTQYSPIGEVVNEKSIVNGIVALLATGGSTNLTMHIVAAARAAGIIVNWDDFSELSDAVPLLARVYPNGHADINHFHAAGGMAFLIKELLDAGLLHEDVNTVAGYGLRRYTQEPKLLDGELRWVDGPTVSLDTEVLTSVATPFQNNGGLKLLKGNLGRAVIKVSAVQPQHRVVEAPAVVIDDQNKLDALFKSGALDRDCVVVVKGQGPKANGMPELHKLTPLLGSLQDKGFKVALMTDGRMSGASGKVPAAIHLTPEAIDGGLIAKVQDGDLIRVDALTGELSLLVSDTELATRTATEIDLRHSRYGMGRELFGVLRSNLSSPETGARSTSAIDELY
notes: 6-phosphogluconate dehydratase, Shewanella oneidensis, GenBank WP_011072452; apo form as in PDB 2GP4 (no [Fe-S] cluster, no Mg2+); The crystal data were deposited by others (PDB 2GP4, unpublished); also called So6PGDHT; SoPGDHT
- stoichiometry N [3]: 2
